In paper PMC4650537, “Loss of Caspase-3 sensitizes colon cancer cells to genotoxic stress via RIP1-dependent necrosis” (Cell Death & Disease, 2015):

B1: Fas (TNFRSF6)-associated via death domain (natural protein, human (endogenous in HCT116), UniProt Q13158 1-208, looked up)
chain: MDPFLVLLHSVSSSLSSSELTELKFLCLGRVGKRKLERVQSGLDLFSMLLEQNDLEPGHTELLRELLASLRRHDLLRRVDDFEAGAAAGAAPGEEDLCAAFNVICDNVGKDWRRLARQLKVSDTKIDSIEDRYPRNLTERVRESLRIWKNTEKENATVAHLVGALRSCQMNLVADLVQEVQQARDLQNRSGAMSPMSWNSDASTSEAS
notes: FADD, human, endogenous in HCT116 colon cancer cells; also called FADD; source: endogenous, HCT116 (WT or caspase-3 knockout) whole cell lysate
B2: receptor (TNFRSF)-interacting serine-threonine kinase 1 (natural protein, human (endogenous in HCT116), UniProt Q13546 1-671, looked up)
chain: MQPDMSLNVIKMKSSDFLESAELDSGGFGKVSLCFHRTQGLMIMKTVYKGPNCIEHNEALLEEAKMMNRLRHSRVVKLLGVIIEEGKYSLVMEYMEKGNLMHVLKAEMSTPLSVKGRIILEIIEGMCYLHGKGVIHKDLKPENILVDNDFHIKIADLGLASFKMWSKLNNEEHNELREVDGTAKKNGGTLYYMAPEHLNDVNAKPTEKSDVYSFAVVLWAIFANKEPYENAICEQQLIMCIKSGNRPDVDDITEYCPREIISLMKLCWEANPEARPTFPGIEEKFRPFYLSQLEESVEEDVKSLKKEYSNENAVVKRMQSLQLDCVAVPSSRSNSATEQPGSLHSSQGLGMGPVEESWFAPSLEHPQEENEPSLQSKLQDEANYHLYGSRMDRQTKQQPRQNVAYNREEERRRRVSHDPFAQQRPYENFQNTEGKGTAYSSAASHGNAVHQPSGLTSQPQVLYQNNGLYSSHGFGTRPLDPGTAGPRVWYRPIPSHMPSLHNIPVPETNYLGNTPTMPFSSLPPTDESIKYTIYNSTGIQIGAYNYMEIGGTSSSLLDSTNTNFKEEPAAKYQAIFDNTTSLTDKHLDPIRENLGKHWKNCARKLGFTQSQIDEIDHDYERDGLKEKVYQMLQKWVMREGIKGATVGKLAQALHQCSRIDLLSSLIYVSQN
notes: also called RIP1; RIP; source: endogenous, HCT116 (WT or caspase-3 knockout) whole cell lysate

Target: T1, pro-caspase-8 (human (endogenous in HCT116), UniProt Q14790 1-479)
T1 construct: caspase-8, human, endogenous in HCT116 colon cancer cells; Precipitated with a caspase-8 antibody (IP-Cas-8); also called Cas-8; source: endogenous, HCT116 (WT or caspase-3 knockout) whole cell lysate
T1 sequence (Q14790 whole entry): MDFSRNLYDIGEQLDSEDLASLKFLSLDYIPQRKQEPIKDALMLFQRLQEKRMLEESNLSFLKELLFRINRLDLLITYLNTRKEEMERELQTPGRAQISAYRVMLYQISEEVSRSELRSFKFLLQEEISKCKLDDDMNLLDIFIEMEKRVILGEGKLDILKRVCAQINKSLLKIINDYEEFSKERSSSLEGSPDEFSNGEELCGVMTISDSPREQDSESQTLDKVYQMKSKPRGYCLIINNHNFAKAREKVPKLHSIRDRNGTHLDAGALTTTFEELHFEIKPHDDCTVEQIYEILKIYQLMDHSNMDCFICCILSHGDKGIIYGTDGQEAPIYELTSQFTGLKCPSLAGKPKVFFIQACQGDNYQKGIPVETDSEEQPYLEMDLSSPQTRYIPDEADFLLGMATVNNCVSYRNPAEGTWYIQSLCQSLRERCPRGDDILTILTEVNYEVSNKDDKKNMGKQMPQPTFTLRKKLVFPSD
Experiment: co-IP; IP with caspase-8 antibody (IP-Cas-8) from lysates of HCT116 WT or C3KO cells treated with DMSO or 5-FU (50 μg/ml) for 24 h; also with z-VAD (20 μM) and with or without glutathione (GSH, 10 μM); blots quantified (Supplementary Tables S2, S3)
Details: partners not purified

Binder	quantified 5-FU-induced FADD in the complex (C3KO cells, without z-VAD; FADD term of the FADD to RIP1 ratio)	quantified 5-FU-induced FADD in the complex (with z-VAD; FADD term of the FADD to RIP1 ratio)	quantified 5-FU-induced RIP1 in the complex (with z-VAD; RIP1 term of the FADD to RIP1 ratio)
B1	1.82	7.5	
B2			7.3
